Source: patent US20060286609A1 (BIOCHECK, published 2006)

Columns and labels:
[1] = target: Human Id1: Histidine (human) (UniProt P41134); test: ELISA, coated antigen, Ab 0.500 ug/ml
[2] = target: Human Id1: Histidine (human) (UniProt P41134); test: ELISA, coated antigen, Ab 0.025 ug/ml
[3] = target: Human Id1: Histidine (human) (UniProt P41134); test: ELISA, coated antigen, Ab 0.010 ug/ml
Mouse Id3: Histidine [4] = target: T1, Mouse Id3: Histidine (mouse, UniProt P41133 1-119, limits assumed); test: ELISA, coated antigen, Ab 0.005 ug/ml
T1 construct: E. coli fusion protein (vector pGW07); also called m-Id3: His; not shown: His-tag
T1 sequence (looked up): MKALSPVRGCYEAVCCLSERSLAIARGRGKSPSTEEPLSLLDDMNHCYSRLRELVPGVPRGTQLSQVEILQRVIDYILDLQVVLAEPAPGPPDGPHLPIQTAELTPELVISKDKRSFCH

Mouse Id2: Histidine [5] = target: T2, Mouse Id2: Histidine (mouse, UniProt P41136 1-134, limits assumed); test: ELISA, coated antigen, Ab 0.005 ug/ml
T2 construct: E. coli fusion protein (vector pGW07); also called m-Id2: His; not shown: His-tag
T2 sequence (looked up): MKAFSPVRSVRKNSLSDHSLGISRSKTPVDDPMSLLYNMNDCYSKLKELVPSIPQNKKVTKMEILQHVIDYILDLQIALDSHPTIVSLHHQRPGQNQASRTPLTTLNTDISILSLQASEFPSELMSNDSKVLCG

Human Id3: Histidine [6] = target: T3, Human Id3: Histidine (human, UniProt Q02535 1-119, limits assumed); test: ELISA, coated antigen, Ab 0.005 ug/ml
T3 construct: E. coli fusion protein (vector pGW07); also called h-Id3: His; not shown: His-tag
T3 sequence (looked up): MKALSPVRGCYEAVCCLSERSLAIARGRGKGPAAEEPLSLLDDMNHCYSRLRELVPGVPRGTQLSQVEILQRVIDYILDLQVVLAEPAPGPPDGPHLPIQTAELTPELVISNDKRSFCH

Human Id2: Histidine [7] = target: T4, Human Id2: Histidine (human, UniProt Q02363 1-134, limits assumed); test: ELISA, coated antigen, Ab 0.005 ug/ml
T4 construct: E. coli fusion protein (vector pGW07); also called h-Id2: His; not shown: His-tag
T4 sequence (looked up): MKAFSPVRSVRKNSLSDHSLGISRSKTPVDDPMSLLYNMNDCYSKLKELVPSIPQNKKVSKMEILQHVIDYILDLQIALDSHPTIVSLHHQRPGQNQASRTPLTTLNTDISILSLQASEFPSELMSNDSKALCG

Mouse Id1: Histidine [8] = target: T5, Mouse Id1: Histidine (mouse, UniProt P20067-2 1-148); test: ELISA, coated antigen, Ab 0.005 ug/ml
T5 construct: E. coli fusion protein (vector pGW07); also called m-Id1-His; not shown: His-tag
T5 sequence: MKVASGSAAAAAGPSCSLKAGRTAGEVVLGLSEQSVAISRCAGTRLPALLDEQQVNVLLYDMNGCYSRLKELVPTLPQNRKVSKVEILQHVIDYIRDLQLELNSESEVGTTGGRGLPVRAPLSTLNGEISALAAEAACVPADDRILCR

Human Id4: Histidine [9] = target: T6, Human Id4: Histidine (human, UniProt P47928 1-161, limits assumed); test: ELISA, coated antigen, Ab 0.005 ug/ml
T6 construct: E. coli fusion protein (vector pGW07); also called h-Id4: His; not shown: His-tag
T6 sequence (looked up): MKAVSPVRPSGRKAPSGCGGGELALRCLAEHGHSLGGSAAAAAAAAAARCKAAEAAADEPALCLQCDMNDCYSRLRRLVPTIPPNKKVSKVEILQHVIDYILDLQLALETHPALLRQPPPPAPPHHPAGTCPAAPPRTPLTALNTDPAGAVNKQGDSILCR

Mouse Id4: Histidine [10] = target: T7, Mouse Id4: Histidine (mouse, UniProt P41139 1-161, limits assumed); test: ELISA, coated antigen, Ab 0.005 ug/ml
T7 construct: E. coli fusion protein (vector pGW07); also called m-Id4: His; not shown: His-tag
T7 sequence (looked up): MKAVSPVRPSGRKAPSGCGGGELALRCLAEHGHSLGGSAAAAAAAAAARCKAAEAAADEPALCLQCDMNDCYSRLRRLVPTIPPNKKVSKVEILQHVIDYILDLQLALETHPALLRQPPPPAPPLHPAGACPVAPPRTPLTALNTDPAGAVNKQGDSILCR

[11] = target: Human Id1: Histidine (human) (UniProt P41134); test: ELISA, coated antigen, Ab 0.005 ug/ml
[12] = target: Human Id1: Histidine (human) (UniProt P41134); test: ELISA, coated antigen, Ab 0.250 ug/ml
[13] = target: Human Id1: Histidine (human) (UniProt P41134); test: ELISA, coated antigen, Ab 0.050 ug/ml
[14] = target: Human Id1: Histidine (human) (UniProt P41134); test: ELISA, coated antigen, Ab 0.000 ug/ml (blank, diluent only)
Mouse Id3: Histidine [15] = target: T1, Mouse Id3: Histidine; test: ELISA, coated antigen, Ab 0.100 ug/ml
Mouse Id2: Histidine [16] = target: T2, Mouse Id2: Histidine; test: ELISA, coated antigen, Ab 0.100 ug/ml
Human Id3: Histidine [17] = target: T3, Human Id3: Histidine; test: ELISA, coated antigen, Ab 0.100 ug/ml
Human Id2: Histidine [18] = target: T4, Human Id2: Histidine; test: ELISA, coated antigen, Ab 0.100 ug/ml
Mouse Id1: Histidine [19] = target: T5, Mouse Id1: Histidine; test: ELISA, coated antigen, Ab 0.100 ug/ml
Human Id4: Histidine [20] = target: T6, Human Id4: Histidine; test: ELISA, coated antigen, Ab 0.100 ug/ml
Mouse Id4: Histidine [21] = target: T7, Mouse Id4: Histidine; test: ELISA, coated antigen, Ab 0.100 ug/ml
[22] = target: Human Id1: Histidine (human) (UniProt P41134); test: ELISA, coated antigen, Ab 0.100 ug/ml
Mouse Id3: Histidine [23] = target: T1, Mouse Id3: Histidine; test: ELISA, coated antigen; relative to mouse Id1
Human Id2: Histidine [24] = target: T4, Human Id2: Histidine; test: ELISA, coated antigen; relative to mouse Id1

Chain of Human Id1: Histidine (human) (P41134 whole entry): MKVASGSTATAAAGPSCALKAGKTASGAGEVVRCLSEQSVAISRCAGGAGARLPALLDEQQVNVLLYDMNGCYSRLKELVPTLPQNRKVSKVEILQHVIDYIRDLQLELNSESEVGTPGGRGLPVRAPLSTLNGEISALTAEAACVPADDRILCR

rabbit monoclonal anti-human Id1, clone #BCH-2/#5-3 (antibody)
A450 [1]: 3.15 A450 | A450 [2]: 0.728 A450 | A450 [3]: 0.362 A450 | A450 (Mouse Id3: Histidine [4]): 0.047 A450 | A450 (Mouse Id2: Histidine [5]): 0.048 A450 | A450 (Human Id3: Histidine [6]): 0.048 A450 | A450 (Human Id2: Histidine [7]): 0.049 A450 | A450 (Mouse Id1: Histidine [8]): 0.063 A450 | A450 (Human Id4: Histidine [9]): 0.049 A450 | A450 (Mouse Id4: Histidine [10]): 0.045 A450 | A450 [11]: 0.209 A450 | A450 [12]: 2.76 A450 | A450 [13]: 1.22 A450 | A450 [14]: 0.052 A450 | A450 (Mouse Id3: Histidine [15]): 0.05 A450 | A450 (Mouse Id2: Histidine [16]): 0.049 A450 | A450 (Human Id3: Histidine [17]): 0.046 A450 | A450 (Human Id2: Histidine [18]): 0.054 A450 | A450 (Mouse Id1: Histidine [19]): 0.068 A450 | A450 (Human Id4: Histidine [20]): 0.047 A450 | A450 (Mouse Id4: Histidine [21]): 0.049 A450 | A450 [22]: 1.86 A450

rabbit monoclonal anti-mouse/human Id1, clone #BCH-1/#195-14 (antibody)
A450 [1]: 3.02 A450 | A450 [2]: 1.12 A450 | A450 [3]: 0.569 A450 | A450 (Mouse Id3: Histidine [4]): 0.048 A450 | A450 (Mouse Id2: Histidine [5]): 0.052 A450 | A450 (Human Id3: Histidine [6]): 0.047 A450 | A450 (Human Id2: Histidine [7]): 0.048 A450 | A450 (Mouse Id1: Histidine [8]): 0.249 A450 | A450 (Human Id4: Histidine [9]): 0.044 A450 | A450 (Mouse Id4: Histidine [10]): 0.047 A450 | A450 [11]: 0.31 A450 | A450 [12]: 2.88 A450 | A450 [13]: 1.7 A450 | A450 [14]: 0.05 A450 | Cross-reactivity (%) (Mouse Id3: Histidine [23]): < 1% | Cross-reactivity (%) (Human Id2: Histidine [24]): < 1% | A450 (Mouse Id3: Histidine [15]): 0.05 A450 | A450 (Mouse Id2: Histidine [16]): 0.054 A450 | A450 (Human Id3: Histidine [17]): 0.047 A450 | A450 (Human Id2: Histidine [18]): 0.053 A450 | A450 (Mouse Id1: Histidine [19]): 2.04 A450 | A450 (Human Id4: Histidine [20]): 0.049 A450 | A450 (Mouse Id4: Histidine [21]): 0.049 A450 | A450 [22]: 2.17 A450

B1: rabbit monoclonal anti-mouse Id1, clone #BCH-1/#37-2 (antibody, V domains shown)
VH: QSVEESGGRLVTPGTPLTLTCKVSGFDINSYAMDWFRQAPGKGLEWIGMMSTRGNTYYTSWAKGRFTISKTSSTTVDLKMTSLTTEDTATYFCARGGLWGPGTLVTVSS
VL: RVLTQTASPVSAAVGGTVTINCQASQSVYNGNRLGWYQLKPGQSPKELIHDASTLASGVPSRFRGSGSGTQFTLTINDVQCDDAATYYCVGSYACSTGDCNVFGGGTEVVVK
notes: Rabbit IgG from hybridoma, Protein G purified; also called m Id1 MoAb 37-2; Rabbit Monoclonal Anti-Mouse Id1 (#37-2)
A450 [1]: 0.27 A450 | A450 [2]: 0.073 A450 | A450 [3]: 0.056 A450 | A450 [11]: 0.057 A450 | A450 [12]: 0.187 A450 | A450 [13]: 0.092 A450 | A450 [14]: 0.051 A450 | Cross-reactivity (%) (Mouse Id3: Histidine [23]): < 1% | Cross-reactivity (%) (Human Id2: Histidine [24]): < 1% | A450 [22]: 0.117 A450
